Assay results from patent US20160060354A1 (published 2016).

Molecular target: Her (trivalent GalNAc glycan-conjugated)
Assay: SPR

koff: 1.83e-08 s⁻¹
B1: ASGPR subunit H1 (receptor)
chain: QNSQLQEELRGLRETFSNFTASTEAQVKGLSTQGGNVGRKMKSLESQLEKQQKDLSEDHSSLLLHVKQFVSDLRSLSCQMAALQGNGSERTCCPVNWVEHERSCYWFSRSGKAWADADNYCRLEDAHLVVVTSWEEQKFVQHHIGPVNTWMGLHDQNGPWKWVDGTDYETGFKNWRPEQPDDWYGHGLGGGEDCAHFTDDGRWNDDVCQRPYRWVCETELDKASQEPPLL
